The results in this text go back to patent publication US20170015742A1 (published 2017).

Sequences and labels used below:
B1: 9E8.4-SS-4G8.3 DVD-Ig (PR-1563990) (bispecific antibody, human IgG1, kappa, L234A L235A)
heavy: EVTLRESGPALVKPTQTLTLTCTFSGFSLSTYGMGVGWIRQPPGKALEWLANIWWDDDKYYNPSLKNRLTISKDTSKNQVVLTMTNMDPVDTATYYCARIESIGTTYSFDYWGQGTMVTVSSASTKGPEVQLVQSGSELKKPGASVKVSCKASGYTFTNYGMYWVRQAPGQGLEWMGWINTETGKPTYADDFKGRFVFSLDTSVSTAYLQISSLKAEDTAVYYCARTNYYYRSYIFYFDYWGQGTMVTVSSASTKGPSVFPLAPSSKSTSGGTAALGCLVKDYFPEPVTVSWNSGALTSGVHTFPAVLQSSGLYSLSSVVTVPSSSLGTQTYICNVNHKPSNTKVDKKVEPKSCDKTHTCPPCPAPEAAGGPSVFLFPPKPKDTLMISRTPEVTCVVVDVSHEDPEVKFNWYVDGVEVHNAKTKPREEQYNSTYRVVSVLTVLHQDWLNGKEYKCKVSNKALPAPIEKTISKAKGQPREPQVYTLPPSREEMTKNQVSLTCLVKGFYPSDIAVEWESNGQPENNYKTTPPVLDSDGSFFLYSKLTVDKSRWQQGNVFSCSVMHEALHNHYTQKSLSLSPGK
light: EFVLTQSPGTLSLSPGERATLSCERSSGDIGDSYVSWYQQKPGQAPRLVIYADDQRPSGIPDRFSGSGSGTDFTLTISRLEPEDFAVYYCQSYDINIDIVFGGGTKVEIKGTVAAPDTVLTQSPATLSLSPGERATLSCRASESVSTHMHWYQQKPGQAPRLLIYGASNLESGVPARFSGSGSGTDFTLTISSLEPEDFAVYFCQQSWNDPFTFGQGTKLEIKRTVAAPSVFIFPPSDEQLKSGTASVVCLLNNFYPREAKVQWKVDNALQSGNSQESVTEQDSKDSTYSLSSTLTLSKADYEKHKVYACEVTHQGLSSPVTKSFNRGEC
B2: 9E8.4-LS-4G8.3 DVD-Ig (PR-1564009) (bispecific antibody, human IgG1, kappa, L234A L235A)
heavy: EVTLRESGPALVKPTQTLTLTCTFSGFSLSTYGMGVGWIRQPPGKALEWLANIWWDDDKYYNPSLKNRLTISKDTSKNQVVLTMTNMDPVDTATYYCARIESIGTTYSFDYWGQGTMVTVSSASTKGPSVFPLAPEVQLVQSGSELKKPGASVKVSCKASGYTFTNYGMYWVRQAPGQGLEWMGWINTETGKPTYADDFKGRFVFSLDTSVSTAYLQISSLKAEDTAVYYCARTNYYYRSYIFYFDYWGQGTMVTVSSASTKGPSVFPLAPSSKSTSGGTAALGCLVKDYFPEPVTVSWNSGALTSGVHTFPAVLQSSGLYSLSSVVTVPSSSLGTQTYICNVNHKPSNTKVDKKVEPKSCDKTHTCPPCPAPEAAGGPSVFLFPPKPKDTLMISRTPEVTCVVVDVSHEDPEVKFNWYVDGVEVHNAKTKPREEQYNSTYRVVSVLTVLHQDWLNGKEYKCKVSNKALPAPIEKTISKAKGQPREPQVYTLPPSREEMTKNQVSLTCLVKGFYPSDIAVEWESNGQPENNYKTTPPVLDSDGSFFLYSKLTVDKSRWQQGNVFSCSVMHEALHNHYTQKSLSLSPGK
light: B1 light
B3: 9E8.4-SL-4G8.3 DVD-Ig (PR-1563998) (bispecific antibody, human IgG1, kappa, L234A L235A)
heavy: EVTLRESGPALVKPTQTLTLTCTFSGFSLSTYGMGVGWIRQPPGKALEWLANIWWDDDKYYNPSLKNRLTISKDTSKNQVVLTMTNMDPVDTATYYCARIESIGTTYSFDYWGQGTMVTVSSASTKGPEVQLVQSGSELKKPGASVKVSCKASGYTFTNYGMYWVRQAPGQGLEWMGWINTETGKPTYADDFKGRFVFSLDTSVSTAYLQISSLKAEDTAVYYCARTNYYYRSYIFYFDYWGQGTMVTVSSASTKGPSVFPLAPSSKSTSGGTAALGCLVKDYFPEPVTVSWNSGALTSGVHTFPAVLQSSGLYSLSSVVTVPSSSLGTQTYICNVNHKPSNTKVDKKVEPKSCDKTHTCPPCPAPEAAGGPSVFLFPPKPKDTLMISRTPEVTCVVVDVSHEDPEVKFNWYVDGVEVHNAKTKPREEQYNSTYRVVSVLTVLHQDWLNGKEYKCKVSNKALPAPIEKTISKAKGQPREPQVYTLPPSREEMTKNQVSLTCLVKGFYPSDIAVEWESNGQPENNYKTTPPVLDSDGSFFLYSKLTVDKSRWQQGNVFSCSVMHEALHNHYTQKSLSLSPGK
light: EFVLTQSPGTLSLSPGERATLSCERSSGDIGDSYVSWYQQKPGQAPRLVIYADDQRPSGIPDRFSGSGSGTDFTLTISRLEPEDFAVYYCQSYDINIDIVFGGGTKVEIKGTVAAPSVFIFPPDTVLTQSPATLSLSPGERATLSCRASESVSTHMHWYQQKPGQAPRLLIYGASNLESGVPARFSGSGSGTDFTLTISSLEPEDFAVYFCQQSWNDPFTFGQGTKLEIKRTVAAPSVFIFPPSDEQLKSGTASVVCLLNNFYPREAKVQWKVDNALQSGNSQESVTEQDSKDSTYSLSSTLTLSKADYEKHKVYACEVTHQGLSSPVTKSFNRGEC
B4: 4G8.3-GS-9E8.4E DVD-Ig (PR-1575832) (bispecific antibody, human IgG1, kappa, L234A L235A)
heavy: EVQLVQSGSELKKPGASVKVSCKASGYTFTNYGMYWVRQAPGQGLEWMGWINTETGKPTYADDFKGRFVFSLDTSVSTAYLQISSLKAEDTAVYYCARTNYYYRSYIFYFDYWGQGTMVTVSSGGGGSGGGGSEVTLRESGPALVKPTQTLTLTCTFSGFSLSTYGMGVGWIRQPPGKALEWLANIWWDDDKYYNPSLKNRLTISKDTSKNQVVLTMTNMDPVDTATYYCARIESIGTTYSFDYWGQGTMVTVSSASTKGPSVFPLAPSSKSTSGGTAALGCLVKDYFPEPVTVSWNSGALTSGVHTFPAVLQSSGLYSLSSVVTVPSSSLGTQTYICNVNHKPSNTKVDKKVEPKSCDKTHTCPPCPAPEAAGGPSVFLFPPKPKDTLMISRTPEVTCVVVDVSHEDPEVKFNWYVDGVEVHNAKTKPREEQYNSTYRVVSVLTVLHQDWLNGKEYKCKVSNKALPAPIEKTISKAKGQPREPQVYTLPPSREEMTKNQVSLTCLVKGFYPSDIAVEWESNGQPENNYKTTPPVLDSDGSFFLYSKLTVDKSRWQQGNVFSCSVMHEALHNAYTQKSLSLSPGK
light: DTVLTQSPATLSLSPGERATLSCRASESVSTHMHWYQQKPGQAPRLLIYGASNLESGVPARFSGSGSGTDFTLTISSLEPEDFAVYFCQQSWNDPFTFGQGTKLEIKRGGSGGGGSGEFVLTQSPGTLSLSPGERATLSCERSSGDIGESYVSWYQQKPGQAPRLVIYADDQRPSGIPDRFSGSGSGTDFTLTISRLEPEDFAVYYCQSYDINIDIVFGGGTKVEIKRTVAAPSVFIFPPSDEQLKSGTASVVCLLNNFYPREAKVQWKVDNALQSGNSQESVTEQDSKDSTYSLSSTLTLSKADYEKHKVYACEVTHQGLSSPVTKSFNRGEC
B5: 4G8.3-SS-9E8.4 DVD-Ig (PR-1564011) (bispecific antibody, human IgG1, kappa, L234A L235A)
heavy: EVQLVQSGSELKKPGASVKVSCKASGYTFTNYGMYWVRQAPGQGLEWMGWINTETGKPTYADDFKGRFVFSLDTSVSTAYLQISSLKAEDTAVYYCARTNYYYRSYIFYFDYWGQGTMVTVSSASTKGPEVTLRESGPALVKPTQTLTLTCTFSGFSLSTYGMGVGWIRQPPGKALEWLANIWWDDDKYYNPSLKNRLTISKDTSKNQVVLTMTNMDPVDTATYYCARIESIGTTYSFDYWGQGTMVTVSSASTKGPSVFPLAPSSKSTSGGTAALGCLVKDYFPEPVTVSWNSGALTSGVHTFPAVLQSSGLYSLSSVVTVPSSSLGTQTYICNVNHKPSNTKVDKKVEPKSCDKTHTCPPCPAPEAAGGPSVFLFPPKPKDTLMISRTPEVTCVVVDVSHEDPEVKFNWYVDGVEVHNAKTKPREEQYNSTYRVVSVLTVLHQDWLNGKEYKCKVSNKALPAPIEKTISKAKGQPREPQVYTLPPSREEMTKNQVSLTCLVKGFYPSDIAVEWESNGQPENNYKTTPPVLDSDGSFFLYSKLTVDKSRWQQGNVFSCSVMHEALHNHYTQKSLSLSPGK
light: DTVLTQSPATLSLSPGERATLSCRASESVSTHMHWYQQKPGQAPRLLIYGASNLESGVPARFSGSGSGTDFTLTISSLEPEDFAVYFCQQSWNDPFTFGQGTKLEIKRTVAAPEFVLTQSPGTLSLSPGERATLSCERSSGDIGDSYVSWYQQKPGQAPRLVIYADDQRPSGIPDRFSGSGSGTDFTLTISRLEPEDFAVYYCQSYDINIDIVFGGGTKVEIKGTVAAPSVFIFPPSDEQLKSGTASVVCLLNNFYPREAKVQWKVDNALQSGNSQESVTEQDSKDSTYSLSSTLTLSKADYEKHKVYACEVTHQGLSSPVTKSFNRGEC
B6: 4G8.3-SL-9E8.4E DVD-Ig (PR-1575834) (bispecific antibody, human IgG1, kappa, L234A L235A)
heavy: EVQLVQSGSELKKPGASVKVSCKASGYTFTNYGMYWVRQAPGQGLEWMGWINTETGKPTYADDFKGRFVFSLDTSVSTAYLQISSLKAEDTAVYYCARTNYYYRSYIFYFDYWGQGTMVTVSSASTKGPEVTLRESGPALVKPTQTLTLTCTFSGFSLSTYGMGVGWIRQPPGKALEWLANIWWDDDKYYNPSLKNRLTISKDTSKNQVVLTMTNMDPVDTATYYCARIESIGTTYSFDYWGQGTMVTVSSASTKGPSVFPLAPSSKSTSGGTAALGCLVKDYFPEPVTVSWNSGALTSGVHTFPAVLQSSGLYSLSSVVTVPSSSLGTQTYICNVNHKPSNTKVDKKVEPKSCDKTHTCPPCPAPEAAGGPSVFLFPPKPKDTLMISRTPEVTCVVVDVSHEDPEVKFNWYVDGVEVHNAKTKPREEQYNSTYRVVSVLTVLHQDWLNGKEYKCKVSNKALPAPIEKTISKAKGQPREPQVYTLPPSREEMTKNQVSLTCLVKGFYPSDIAVEWESNGQPENNYKTTPPVLDSDGSFFLYSKLTVDKSRWQQGNVFSCSVMHEALHNAYTQKSLSLSPGK
light: DTVLTQSPATLSLSPGERATLSCRASESVSTHMHWYQQKPGQAPRLLIYGASNLESGVPARFSGSGSGTDFTLTISSLEPEDFAVYFCQQSWNDPFTFGQGTKLEIKRTVAAPSVFIFPPEFVLTQSPGTLSLSPGERATLSCERSSGDIGESYVSWYQQKPGQAPRLVIYADDQRPSGIPDRFSGSGSGTDFTLTISRLEPEDFAVYYCQSYDINIDIVFGGGTKVEIKRTVAAPSVFIFPPSDEQLKSGTASVVCLLNNFYPREAKVQWKVDNALQSGNSQESVTEQDSKDSTYSLSSTLTLSKADYEKHKVYACEVTHQGLSSPVTKSFNRGEC
B7: hBDI-5H1.1 (antibody, V domains shown)
VH: EVTLRESGPALVKPTQTLTLTCTFSGFSLSTFGMGVGWIRQPPGKALEWLANIWWDDDKYYNPSLKNRLTISKDTSKNQVVLTMTNMDPVDTATYYCARISTGISSYYVMDAWGQGTTVTVSS
VL: NFMLTQPHSVSESPGKTVTISCERSSGDIGDTYVSWYQQRPGSSPTTVIYGNDQRPSGVPDRFSGSIDSSSNSASLTISGLKTEDEADYYCQSYDSDIDIVFGGGTKLTVL
notes: Humanized IgG
B8: hBDI-5H1.9 (antibody, V domains shown)
VH: B7 VH with V80A, M84I
VL: DFVLTQSPDSLAVSLGERATINCERSSGDIGDTYVSWYQQKPGQPPKNVIYGNDQRPSGVPDRFSGSGSGNSATLTISSLQAEDVAVYFCQSYDSDIDIVFGGGTKVEIK
notes: Humanized IgG
B9: hBDI-5H1.3 (antibody, V domains shown)
VH: B7 VH
VL: EIVLTQSPGTLSLSPGERATLSCERSSGDIGDTYVSWYQQKPGQAPRLLIYGNDQRPSGIPDRFSGSGSGTDFTLTISRLEPEDFAVYYCQSYDSDIDIVFGGGTKVEIK
notes: Humanized IgG
B10: hBDI-5H1.10 (antibody, V domains shown)
VH: B7 VH with V80A, M84I
VL: DFQLTQSPSSLSASVGDRVTITCERSSGDIGDTYVSWYQQKPGKAPKNVIYGNDQRPSGVPSRFSGSGSGNSATLTISSLQPEDFATYFCQSYDSDIDIVFGQGTKVEIK
notes: Humanized IgG
B11: hBDI-5H1.6 (antibody, V domains shown)
VH: B7 VH with R5K, V80A, M84I
VL: B7 VL with S44P, T47N, Y90F
notes: Humanized IgG
B12: hBDI-5H1.2 (antibody, V domains shown)
VH: B7 VH
VL: B7 VL with S44P, T47N, Y90F
notes: Humanized IgG
B13: hBDI-5H1.5 (antibody, V domains shown)
VH: B7 VH with R5K, V80A, M84I
VL: B7 VL
notes: Humanized IgG
B14: hBDI-5H1.4 (antibody, V domains shown)
VH: B7 VH
VL: B9 VL with I2F, L49V
notes: Humanized IgG
B15: hBDI-5H1.11 (antibody, V domains shown)
VH: EVQLVESGGGLVQPGGSLRLSCAFSGFSLSTFGMGVGWIRQAPGKGLEWLANIWWDDDKYYNPSLKNRLTISKDTSKNQAYLQINSLRAEDTAVYYCARISTGISSYYVMDAWGQGTLVTVSS
VL: B8 VL
notes: Humanized IgG
B16: hBDI-5H1.12 (antibody, V domains shown)
VH: B15 VH
VL: B10 VL
notes: Humanized IgG

Positions count from the first letter of the chain named.

recombinant human PDGF-BB, sequence (P01127 82-190 limits assumed): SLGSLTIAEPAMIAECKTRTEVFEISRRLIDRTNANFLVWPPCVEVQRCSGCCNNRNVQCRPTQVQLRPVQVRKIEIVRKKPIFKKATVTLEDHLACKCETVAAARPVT

One test addresses recombinant human PDGF-BB (human, UniProt P01127 82-190). Description: cell-based or functional assay.
Consider B1, for which the “NIH-3T3 hPDGF-BB Potency IC50” value turned out to be 0.094 nM. The same measure, in the same setting: under B2 stands 0.104 nM.

With B3, the “NIH-3T3 hPDGF-BB Potency IC50” value stood at 0.091 nM. As to B4, the “NIH-3T3 hPDGF-BB Potency IC50” value was greater than 5 nM.

For the molecule B5, the “NIH-3T3 hPDGF-BB Potency IC50” value was 5.51 nM. Regarding B6, the “NIH-3T3 hPDGF-BB Potency IC50” value was 0.572 nM.

In the next test the target is T1, Human PDGF-BB (human, UniProt P01127 82-190).
T1 construct: Recombinant human PDGF-BB, a homodimer of two B chains; also called hPDGF-BB; huPDGF-BB
T1 sequence (P01127 82-190 limits assumed): as above
Description: SPR (Biacore), antibody captured via anti-human Fc, antigen in solution. The protocol: For example, approximately 9000 RU of goat anti-human Fc specific polyclonal antibody (Thermo Fisher Scientific Inc., Rockford, Ill.) diluted in 10 mM sodium acetate (pH 4.5) is directly immobilized across a CM5 research grade biosensor chip using a standard amine coupling kit according to manufacturer's instructions and procedures at 25 μg/ml. Unreacted moieties on the biosensor surface were blocked with ethanolamine. For kinetic analysis, rate equations derived from the 1:1 Langmuir binding model were fitted simultaneously to multiple antigen injections (using global fit analysis) with the use of Scrubber 2 (BioLogic Software), Biacore Biaevaluation 4.0.1 software or Biacore T100 Evaluation software. Purified antibodies or DVD-Ig molecules were diluted in running buffer for capture across goat anti-human Fc reaction surfaces. Antibodies or DVD-Ig molecules to be captured as a ligand (1 μg/ml) were injected over reaction matrices at a flow rate of 10 μl/minute. During the assay, all measurements were referenced against the capture surface alone (i.e., with no captured antibody or DVD-Ig molecule). […] The equilibrium dissociation constant KD (M) of the reaction between antibodies and the target antigen was then calculated from the kinetic rate constants by the following formula: KD=Koff/Kₒₙ. Binding was recorded as a function of time and kinetic rate constants were calculated.
For orientation: SPR reads the build-up and loss of mass on a sensor chip optically.
The Kd is the free concentration of one partner at which half of the binding sites on the other are occupied at equilibrium, for simple one-to-one binding. As a reminder, the kon is the rate constant with which the complex forms. A higher kon goes with fast association. The molecule B7 had a Kd of no more than 0.41 nM and an on-rate constant (kon) of no less than 1e+07 M⁻¹ s⁻¹. The like results for B8 were, in that order, no more than 0.31 nM and no less than 1e+07 M⁻¹ s⁻¹.

Molecule B9 returned a Kd of no more than 0.45 nM and a kon of no less than 1e+07 M⁻¹ s⁻¹. For B10 the same measures were no more than 0.23 nM and no less than 1e+07 M⁻¹ s⁻¹. For the molecule B11, the Kd is no more than 0.082 nM and the kon was no less than 1e+07 M⁻¹ s⁻¹. For B12 the same measures were no more than 0.19 nM and no less than 1e+07 M⁻¹ s⁻¹. In turn, B13 returned a Kd of no more than 0.17 nM and a kon of no less than 1e+07 M⁻¹ s⁻¹. The like results for B14 were, in that order, no more than 1.4 nM and no less than 1e+07 M⁻¹ s⁻¹. B15 had a Kd of no more than 0.37 nM and a kon of no less than 1e+07 M⁻¹ s⁻¹. For B16 the same measures were no more than 0.23 nM and no less than 1e+07 M⁻¹ s⁻¹.
